{"source": "the supplement of paper PMC10567573", "parents": {"B1": {"name": "HDAC6 (parent)", "chain": "YVHHQALLDVKNIAHQNKFGEDMP"}}}
{"variants_of": "B1", "experiment": "protein stability index of a GFP-peptide fusion (GPS, HEK-293T) (PSI 1-6); higher = more stable", "conditions": "c terminus: a fixed tail appended"}
{"variant": "YVHHQALLDVKNIAWQNKFGEDMP", "note": "[H15W]", "protein stability index": 2.85}
{"variant": "YVHHQALLDVKNIAKQNKFGEDMP", "note": "[H15K]", "protein stability index": 2.35}
{"variant": "YVHHQALLDVKNIATQNKFGEDMP", "note": "[H15T]", "protein stability index": 1.59}
{"variant": "YVHHQALLDVKNIARQNKFGEDMP", "note": "[H15R]", "protein stability index": 2.16}
{"variant": "YVHHQALLDVKNIASQNKFGEDMP", "note": "[H15S]", "protein stability index": 1.75}
{"variant": "YVHHQALLDVKNIADQNKFGEDMP", "note": "[H15D]", "protein stability index": 2.2}
{"variant": "YVHHQALLDVKNIANQNKFGEDMP", "note": "[H15N]", "protein stability index": 1.63}
{"variant": "YVHHQALLDVKNIACQNKFGEDMP", "note": "[H15C]", "protein stability index": 1.7}
{"variant": "YVHHQALLDVKNIAGQNKFGEDMP", "note": "[H15G]", "protein stability index": 1.51}
{"variant": "YVHHQALLDVKNIAEQNKFGEDMP", "note": "[H15E]", "protein stability index": 2.53}
{"variant": "YVHHQALLDVKNPAHQNKFGEDMP", "note": "[I13P]", "protein stability index": 2.17}
{"variant": "YVHHQALLDVKNVAHQNKFGEDMP", "note": "[I13V]", "protein stability index": 2.31}
{"variant": "YVHHQALLDVKNNAHQNKFGEDMP", "note": "[I13N]", "protein stability index": 1.98}
{"variant": "YVHHQALLDVKNLAHQNKFGEDMP", "note": "[I13L]", "protein stability index": 1.77}
{"variant": "YVHHQALLDVKNSAHQNKFGEDMP", "note": "[I13S]", "protein stability index": 2.28}
{"variant": "YVHHQALLDVKNGAHQNKFGEDMP", "note": "[I13G]", "protein stability index": 2.39}
{"variant": "YVHHQALLDVKNDAHQNKFGEDMP", "note": "[I13D]", "protein stability index": 2.77}
{"variant": "YVHHQALLDVKNYAHQNKFGEDMP", "note": "[I13Y]", "protein stability index": 1.95}
{"variant": "YVHHQALLDVKNCAHQNKFGEDMP", "note": "[I13C]", "protein stability index": 1.81}
{"variant": "YVHHQALLDVKNHAHQNKFGEDMP", "note": "[I13H]", "protein stability index": 1.95}
{"variant": "YVHHQALLDVKNFAHQNKFGEDMP", "note": "[I13F]", "protein stability index": 1.94}
{"variant": "YVHHQALLDVKNWAHQNKFGEDMP", "note": "[I13W]", "protein stability index": 2.16}
{"variant": "YVHHQALLDVKNKAHQNKFGEDMP", "note": "[I13K]", "protein stability index": 2}
{"variant": "YVHHQALLDVKNAAHQNKFGEDMP", "note": "[I13A]", "protein stability index": 2.18}
{"variant": "YVHHQALLDVKNRAHQNKFGEDMP", "note": "[I13R]", "protein stability index": 1.96}
{"variant": "YVHHQALLDVKNEAHQNKFGEDMP", "note": "[I13E]", "protein stability index": 2.27}
{"variant": "YVHHQALLDVKNMAHQNKFGEDMP", "note": "[I13M]", "protein stability index": 2.47}
{"variant": "YVHHQALLDVKNTAHQNKFGEDMP", "note": "[I13T]", "protein stability index": 1.9}
{"variant": "YVHHQALLDVKNQAHQNKFGEDMP", "note": "[I13Q]", "protein stability index": 1.92}
{"variant": "YVHHQALLDVKNIAHQPKFGEDMP", "note": "[N17P]", "protein stability index": 2.12}
{"variant": "YVHHQALLDVKNIAHQHKFGEDMP", "note": "[N17H]", "protein stability index": 1.72}
{"variant": "YVHHQALLDVKNIAHQYKFGEDMP", "note": "[N17Y]", "protein stability index": 1.57}
{"variant": "YVHHQALLDVKNIAHQTKFGEDMP", "note": "[N17T]", "protein stability index": 2.47}
{"variant": "YVHHQALLDVKNIAHQFKFGEDMP", "note": "[N17F]", "protein stability index": 1.38}
{"variant": "YVHHQALLDVKNIAHQMKFGEDMP", "note": "[N17M]", "protein stability index": 1.59}
{"variant": "YVHHQALLDVKNIAHQDKFGEDMP", "note": "[N17D]", "protein stability index": 1.9}
{"variant": "YVHHQALLDVKNIAHQSKFGEDMP", "note": "[N17S]", "protein stability index": 2.46}
{"variant": "YVHHQALLDVKNIAHQWKFGEDMP", "note": "[N17W]", "protein stability index": 1.19}
{"variant": "YVHHQALLDVKNIAHQAKFGEDMP", "note": "[N17A]", "protein stability index": 2.83}
{"variant": "YVHHQALLDVKNIAHQIKFGEDMP", "note": "[N17I]", "protein stability index": 1.48}
{"variant": "YVHHQALLDVKNIAHQVKFGEDMP", "note": "[N17V]", "protein stability index": 1.75}
{"variant": "YVHHQALLDVKNIAHQKKFGEDMP", "note": "[N17K]", "protein stability index": 1.97}
{"variant": "YVHHQALLDVKNIAHQCKFGEDMP", "note": "[N17C]", "protein stability index": 1.87}
{"variant": "YVHHQALLDVKNIAHQRKFGEDMP", "note": "[N17R]", "protein stability index": 1.89}
{"variant": "YVHHQALLDVKNIAHQGKFGEDMP", "note": "[N17G]", "protein stability index": 1.58}
{"variant": "YVHHQALLDVKNIAHQEKFGEDMP", "note": "[N17E]", "protein stability index": 1.91}
{"variant": "YVHHQALLDVKNIAHQQKFGEDMP", "note": "[N17Q]", "protein stability index": 1.85}
{"variant": "YVHHQALLDVKNIAHQLKFGEDMP", "note": "[N17L]", "protein stability index": 1.68}
{"variant": "YVHHQALLDVKNILHQNKFGEDMP", "note": "[A14L]", "protein stability index": 1.9}
{"variant": "YVHHQALLDVKNISHQNKFGEDMP", "note": "[A14S]", "protein stability index": 2.35}
{"variant": "YVHHQALLDVKNITHQNKFGEDMP", "note": "[A14T]", "protein stability index": 1.82}
{"variant": "YVHHQALLDVKNINHQNKFGEDMP", "note": "[A14N]", "protein stability index": 2.26}
{"variant": "YVHHQALLDVKNIVHQNKFGEDMP", "note": "[A14V]", "protein stability index": 2.59}
{"variant": "YVHHQALLDVKNIEHQNKFGEDMP", "note": "[A14E]", "protein stability index": 2.3}
{"variant": "YVHHQALLDVKNIYHQNKFGEDMP", "note": "[A14Y]", "protein stability index": 1.74}
{"variant": "YVHHQALLDVKNIRHQNKFGEDMP", "note": "[A14R]", "protein stability index": 2.04}
{"variant": "YVHHQALLDVKNICHQNKFGEDMP", "note": "[A14C]", "protein stability index": 3.38}
{"variant": "YVHHQALLDVKNIHHQNKFGEDMP", "note": "[A14H]", "protein stability index": 1.74}
{"variant": "YVHHQALLDVKNIQHQNKFGEDMP", "note": "[A14Q]", "protein stability index": 2.21}
{"variant": "YVHHQALLDVKNIIHQNKFGEDMP", "note": "[A14I]", "protein stability index": 2.12}
{"variant": "YVHHQALLDVKNIWHQNKFGEDMP", "note": "[A14W]", "protein stability index": 2.79}
{"variant": "YVHHQALLDVKNIPHQNKFGEDMP", "note": "[A14P]", "protein stability index": 2.42}
{"variant": "YVHHQALLDVKNIKHQNKFGEDMP", "note": "[A14K]", "protein stability index": 2.33}
{"variant": "YVHHQALLDVKNIFHQNKFGEDMP", "note": "[A14F]", "protein stability index": 1.52}
{"variant": "YVHHQALLDVKNIGHQNKFGEDMP", "note": "[A14G]", "protein stability index": 1.76}
{"variant": "YVHHQALLDVKNIDHQNKFGEDMP", "note": "[A14D]", "protein stability index": 2}
{"variant": "YVHHQALLDVKNIMHQNKFGEDMP", "note": "[A14M]", "protein stability index": 1.99}
{"variant": "YVHHQALLDVKNIAHQNKDGEDMP", "note": "[F19D]", "protein stability index": 2.48}
{"variant": "YVHHQALLDVKNIAHQNKEGEDMP", "note": "[F19E]", "protein stability index": 2.45}
{"variant": "YVHHQALLDVKNIAHQNKAGEDMP", "note": "[F19A]", "protein stability index": 2.51}
{"variant": "YVHHQALLDVKNIAHQNKGGEDMP", "note": "[F19G]", "protein stability index": 2.43}
{"variant": "YVHHQALLDVKNIAHQNKCGEDMP", "note": "[F19C]", "protein stability index": 1.78}
{"variant": "YVHHQALLDVKNIAHQNKIGEDMP", "note": "[F19I]", "protein stability index": 1.76}
{"variant": "YVHHQALLDVKNIAHQNKHGEDMP", "note": "[F19H]", "protein stability index": 2.53}
{"variant": "YVHHQALLDVKNIAHQNKKGEDMP", "note": "[F19K]", "protein stability index": 1.91}
{"variant": "YVHHQALLDVWNIAHQNKFGEDMP", "note": "[K11W]", "protein stability index": 3.04}
{"variant": "YVHHQALLDVTNIAHQNKFGEDMP", "note": "[K11T]", "protein stability index": 2.25}
{"variant": "YVHHQALLDVMNIAHQNKFGEDMP", "note": "[K11M]", "protein stability index": 1.72}
{"variant": "YVHHQALLDVSNIAHQNKFGEDMP", "note": "[K11S]", "protein stability index": 2.74}
{"variant": "YVHHQALLDVINIAHQNKFGEDMP", "note": "[K11I]", "protein stability index": 2.09}
{"variant": "YVHHQALLDVFNIAHQNKFGEDMP", "note": "[K11F]", "protein stability index": 2.13}
{"variant": "YVHHQALLDVGNIAHQNKFGEDMP", "note": "[K11G]", "protein stability index": 1.95}
{"variant": "YVHHQALLDVANIAHQNKFGEDMP", "note": "[K11A]", "protein stability index": 1.81}
{"variant": "YVHHQALLDVPNIAHQNKFGEDMP", "note": "[K11P]", "protein stability index": 1.92}
{"variant": "YVHHQALLDVENIAHQNKFGEDMP", "note": "[K11E]", "protein stability index": 2.24}
{"variant": "YVHHQALLDVHNIAHQNKFGEDMP", "note": "[K11H]", "protein stability index": 2.21}
{"variant": "YVHHQALLDVLNIAHQNKFGEDMP", "note": "[K11L]", "protein stability index": 1.27}
{"variant": "YVHHQALLDVDNIAHQNKFGEDMP", "note": "[K11D]", "protein stability index": 2.18}
{"variant": "YVHHQALLDVVNIAHQNKFGEDMP", "note": "[K11V]", "protein stability index": 1.41}
{"variant": "YVHHQALLDVYNIAHQNKFGEDMP", "note": "[K11Y]", "protein stability index": 2.77}
{"variant": "YVHHQALLDVQNIAHQNKFGEDMP", "note": "[K11Q]", "protein stability index": 1.4}
{"variant": "YVHHQALLDVCNIAHQNKFGEDMP", "note": "[K11C]", "protein stability index": 1.54}
{"variant": "YVHHQALLDVNNIAHQNKFGEDMP", "note": "[K11N]", "protein stability index": 1.98}
{"variant": "YVHHQALLDVRNIAHQNKFGEDMP", "note": "[K11R]", "protein stability index": 2.08}
